Our source for the Kd values is publication PMC10319729.

For experiment [1], the target named is ZNRF3ΔRING (ZNRF3 with deletion of the RING domain) on HEK293T cells (UniProt Q9ULT6). Nature of the experiment: whole-cell binding, fluorescence plate reader; Fc-tagged ligand in 3x serial dilution on cells in 96-well plates, on ice 1 h, washed, fixed with 4.2% paraformaldehyde, Alexa555-labeled anti-human IgG antibody; half-maximum binding (KD) from a three-parameter dose-response fit.

Experiment [2] addresses RNF43-ECDTM (RNF43 extracellular domain anchored by its transmembrane domain) on HEK293T cells (UniProt Q68DV7). The description is as above.
Experiment [3] has as its target LGR4 (HA-LGR4) over-expressed on HEK293 cells (UniProt Q9BXB1). The experiment is described as above.
Experiment [4] has as its target LGR5ΔCT (human LGR5 without the cytoplasmic C-terminal tail) on HEK293 cells (human) (UniProt O75473). Described as above.
For experiment [5] the target is unchanged. Nature of the experiment: whole-cell binding, fluorescence plate reader; His-tagged ligand in 3x serial dilution on cells in 96-well plates, on ice 1 h, washed, fixed with 4.2% paraformaldehyde, Alexa488-labeled anti-His antibody; half-maximum binding (KD) from a three-parameter dose-response fit.

A value given as a limit tells only on which side of the number the result lay.

RNF43-ECDTM (RNF43 extracellular domain anchored by its transmembrane domain) on HEK293T cells, sequence (Q68DV7 24-218): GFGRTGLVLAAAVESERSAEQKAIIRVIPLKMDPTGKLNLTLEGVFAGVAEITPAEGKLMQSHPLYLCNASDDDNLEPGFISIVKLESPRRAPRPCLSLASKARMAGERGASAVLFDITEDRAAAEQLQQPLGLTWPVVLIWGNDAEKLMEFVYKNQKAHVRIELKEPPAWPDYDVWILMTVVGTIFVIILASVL

As usually defined, the Kd is the constant that tells how readily two partners part at equilibrium. On to “R2Fu-Q70R-bFc (bivalent RSPO2 furin domain with Gln70 to Arg) (from UniProt Q6UXX9 22-243) (Fc fusion)”, for which the Kd in experiment [1] amounted to 2.9 nM; in experiment [2], 6.3 nM.
Take “R2Fu-Q70R-mFc (monovalent RSPO2 furin domain with Gln70 to Arg) (from UniProt Q6UXX9 22-243) (Fc fusion)”: the Kd in experiment [1] and in experiment [2] was greater than 100 nM throughout.
As to “R2Fu-bFc (RSPO2 furin domain fused to wild-type IgG1-Fc, bivalent) (from UniProt Q6UXX9 37-143) (Fc fusion)”, the Kd worked out at 1.6 nM in experiment [3] and 0.8 nM in experiment [4].
Turning to “R2Fu-mFc (RSPO2 furin domain fused to monomeric human IgG4-Fc, monovalent) (from UniProt Q6UXX9 37-143) (Fc fusion)”, the values for the Kd in experiment [3] and in experiment [4] were greater than 50 nM and 1.4 nM, respectively.
In the case of “R2FuTSP-His (RSPO2 furin domain with TSP domain, His-tagged) (from UniProt Q6UXX9 22-205) (domain or fragment)”, the Kd in experiment [5] amounted to 2.6 nM.
With “RSPO2 furin domain with a C-terminal His tag (R2Fu-His) (from UniProt Q6UXX9 37-143) (domain or fragment)”, the Kd in experiment [5] is 1.9 nM.
